Assay results taken from PMC10572819.

What was measured:
[1] = Western blot, HEK-293 with BAP31 siRNA; settings: glycan lost; control: WT-EpCAM
[2] = Western blot, HEK-293 co-transfected with BAP31; settings: glycan lost; control: WT-EpCAM

B1: epithelial cell-adhesion molecule (EpCAM): N76/111/198A (protein)
parent chain: MAPPQVLAFGLLLAAATATFAAAQEECVCENYKLAVNCFVNNNRQCQCTSVGAQNTVICSKLAAKCLVMKAEMNGSKLGRRAKPEGALQNNDGLYDPDCDESGLFKAKQCNGTSMCWCVNTAGVRRTDKDTEITCSERVRTYWIIIELKHKAREKPYDSKSLRTALQKEITTRYQLDPKFITSILYENNVITIDLVQNSSQKTQNDVDIADVAYYFEKDVKGESLFHSKKMDLTVNGEQLDLDPGQTLIYYVDEKAPEFSMQGLKAGVIAVIVVVVIAVVAGIVVLVISRKKRMAKYEKAEIKEMGEMHRELNA
In the case of B1, the “other: fall in protein level on BAP31 knockdown” value [1] is reported as “abolishes” and the “other: rise in protein level on BAP31 overexpression” value [2] is reported as “abolishes”.
